One assay has as its system Drosophila melanogaster. Description: In vivo expression analysis of genomically integrated cirl-NRS sensors (transcriptionally activated mCherry reporter). To be noted: adult animals; FIG. 11. The text has this: To test the utility of the NRS sensor principle in vivo, an existing genomic engineering platform^13,35 was used to encode NRS sensors in alleles of the adhesion GPCR cirl/CG8639 of Drosophila melanogaster. This places CIRL-NRS expression under the endogenous regulatory control of the cirl locus (FIG. 10A). The NRS design was adapted to generate minigenes for cirl-NRS-LexA, cirl^H>A-NRS-LexA and cirl-NRS^S3-LexA by fusing the genomic fragment encoding the CIRL-ECR to the NRS-LexA cDNA (FIG. 10A,B). The resulting transgenes were inserted in the cirl gene using phiC31-assisted transformation generating fly stocks expressing the different sensors variants from the cirl locus.
Next, the functionality of CIRL-NRS was further studied in anatomical expression analyses.
To control for potential misexpression inherent to the LexA transcriptional reporter, additional cirl-NRS transgenes alternatively terminating in Ga/4 or QF2 transcription factor cassettes were generated an analysed.

Assay [1] relates to lexAop-FLuc reporter in Drosophila Schneider 2 (S2) cells. Kind of assay: Luciferase (lexAop-FLuc) reporter assay of NRS sensor constructs in S2 cells. It is filed as cell-based. To be noted: S2 cells; FIG. 9. The text has this: In order to conceptually establish the approach to fuse heterologous ECRs to the Notch^ITS to suppress its proteolytic activation, a sensor protein containing 4 immunoglobulin (Ig) domains of the human CD4 receptor fused to the Notch^ITS was engineered^28 (FIG. 7A).
As a positive control a constitutively active N^ECN-LexA receptor^34 with a constantly exposed S2 cleavage site was included (FIG. 7A,B).
Next, the extracellular CD4 repeats of the sensor protein were replaced with the ECR of an aGPCR, the Latrophilin/ADGRL-homolog CIRL/CG8639 (calcium independent receptor of α-latrotoxin) to enable the NRS to detect the physical dissociation of the NTF-CTF complex within the GAIN domain when appended to the Notch^ITS. Thus, the entire ECR of CIRL (including the GAIN domain, GPS, tethered agonist segment and predicted linker to the 7TM domain) was N-terminally fused to the NRS core (CIRL-NRS-LexA; FIG. 9). […] In order to distinguish between these two possibilities, we mutated the GPS of the sensor at the −2 position of its catalytic triad and replaced the conserved Histidin by an Alanine (FIG. 9) to block GAIN domain self-cleavage and eventual NTF release. […] This set of experiments establishes that the CIRL-NRS-LexA NRS can be used for monitoring the integrity of the NTF-CTF heterodimer clamped by the GAIN domain of CIRL.
For transfection, mini- or midi-prepped plasmid DNA (Qiagen) for each construct was adjusted to a stock concentration 100 ng/μl using a nanophotometer (Implen). For individual transfections a total amount of 200 ng DNA per 96-well plate well was used and always contained 30 ng of lexAop>FLuc2 (test construct reporter) and Act5.1Cp>RLuc (transfection control reporter), respectively. Test constructs (X-NRS-LexA) and TEV protease plasmids were added at 1:1 ratio (equimolarly adjusted to lexAop>FLuc2) to the DNA mixes; each DNA mix was supplemented with empty pBSK-SK+ vector (Stratagene) to 200 ng. S2 cells were cultured in Schneider's Drosophila medium (Invitrogen, Cat. no. 21720-024). Cultures were maintained in an air incubator at 25° C. S2 cells were split and plated into individual wells of a 96-well plate at a concentration of 5×10^5/well on day 0. 24 hours after plating (day 1), cells were transfected with Lipofectamine 2000 (Invitrogen, #11668019) with the suitable 1:1 plasmid/reagent mixture according to manufacturer's instructions and incubated for 48 hours. When induction of the metallothionein-promoter was required, CuSO4 stock medium was added in each well of the experiment to a final concentration of 0.5 mM CuSO4 24 hrs after transfection (day 2).
Cells were lysed on day 3 (48 hrs after transfection) and luciferase measurements with the Dual-Glo luciferase assay system (Promega) were performed according to the manufacturer's protocol. […] Lysates were analyzed in 96-well plates with a Victor2 plate reader luminometer (PerkinElmer). Firefly and Renilla luciferase luminescence signals were collected for 10 s. Relative luciferase activities were calculated for each sample individually as principally described in Potter et al. (ref. 23) according to the following formula: […]
where n=number of control samples; F=Firefly luciferase luminescence signal; R=Renilla luciferase luminescence signal; Empty=lexAop>FLuc2+Ac5.1p>RLuc+BSK-SK+. Each condition was executed at least in triplicate, the average and SEM were determined for each condition, and statistical significance was evaluated using Student's t test. […]

This note sets out measurements from patent US20240010704A1, “CHIMERIC SENSOR PROTEIN AND METHODS OF USE THEREOF” (Universitaet Leipzig, priority 2020, published 2024).

B1: CIRL-NRS^S3-LexA: NTF release sensor for dmCIRL, S3 cleavage site mutated (disabled γ-secretase recognition) (protein)
chain: MKLCILLAVVAFVGLSLGETGFPKSLSVLNSRCAHKQSCGVLAATSMFGDPCPGTHKYLEAHYQCISAAQTSTTTNRPSPPPWVLSNGPPIFGNGSGLIHPPGVGAGAPPPPRLPTLPGVVGISGNPGLFNVPPQHTAVTHSTPSSSTTAVGGGRLKGGATSTTTTKHPAGRHDGLPPPPQLHHHHNHHGEDTASPTKPSSKLPAGGNATSPSNTRILTGVGGSGTDDGTLLTTKSSPNRPPGTAASGSVVPGNGSVVRTINNINLNAAGMSGGDDESKLFCGPTHARNLYWNMTRVGDVNVQPCPGGAAGIAKWRCVLMKRIPDSGYDEYDDDISSTTPAPSGGDCLHNSSSCEPPVSMAHKVNQRLRNFEPTWHPATPDLTQCRSLWLNNLEMRVNQRDSSLISIANDMSEVTSSKTLYGGDMLVTTKIIQTVSEKMMHDKETFPDQRQREAMIMELLHCVVKTGSNLLDESQLSSWLDLNPEDQMRVATSLLTGLEYNAFLLADTIIRERSVVQKVKNILLSVRVLETKTIQSSVVFPDSDQWPLSSDRIELPRAALIDNSEGGLVRIVFAAFDRLESILKPSYDHFDLKSSRSYAILSNDSDVNAGEIQQRLRILNSKVISASLGKGRHIQLSQPITLTLKHLKTENVTNPTCVFWNYIDHAWSANGCSLESTNRTHSVCSCNHLTNFAILMDVVDEHQHSLFTMFDGNMRPRIDTAAKHQLRNDFQIHSVRGIKNPGDEDNGEPPANVKYVITGIILVIIALAFFGMKLSTQRKRSGPPKLKALTARQQEVFDLIRDHISQTGMPPTRAEIAQRLGFRSPNAAEEHLKALARKGVIEIVSGASRGIRLLQEEEEGLPLVGRVAAGEPLLAQQHIEGHYQVDPSLFKPNADFLLRVSGMSMKDIGIMDGDLLAVHKTQDVRNGQVVVARIDDEVTVKRLKKQGNKVELLPENSEFKPIVVDLRQQSFTIEGLAVGVIRNGDWLEFPGIRRPAGIPGDLAPPTDVSLGDELHLDGEDVAMAHADALDDFDLDMLGDGDSPGPGFTPHDSAPYGALDMADFEFEQMFTDALGIDEYGGASRYLDPAFLYKVVSSATMDYKDHDGDYKDHDIDYKDDDDKHRST
modifications: Full-length NTF release sensor for dmCIRL (S3 cleavage site mutated)
With B1, in the assay on Drosophila melanogaster, the “sensor activity (lexAop-mCherry reporter expression)” value is “completely abrogated”. In assay [1], the “reporter activity in luciferase assays” value is on record as “no reporter activity”.
